Experimental data reported in patent publication US20040092712A1 (published 2004).

T1: sCD14(1-307)S286C (human, UniProt P08571 20-326)
T1 construct: CD14 mutant polypeptide expressed in COS-1 cells; also called CD14(s286C)
T1 sequence: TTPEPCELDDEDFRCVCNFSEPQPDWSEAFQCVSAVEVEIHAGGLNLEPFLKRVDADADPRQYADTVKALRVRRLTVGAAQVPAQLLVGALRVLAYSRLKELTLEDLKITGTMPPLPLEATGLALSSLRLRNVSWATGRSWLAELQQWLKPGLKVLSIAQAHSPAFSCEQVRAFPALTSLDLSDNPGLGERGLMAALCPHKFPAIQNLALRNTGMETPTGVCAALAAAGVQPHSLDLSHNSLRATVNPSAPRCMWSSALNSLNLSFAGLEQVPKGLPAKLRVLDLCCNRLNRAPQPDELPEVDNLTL

B1: sCD14(1-356) (receptor)
chain: TTPEPCELDDEDFRCVCNFSEPQPDWSEAFQCVSAVEVEIHAGGLNLEPFLKRVDADADPRQYADTVKALRVRRLTVGAAQVPAQLLVGALRVLAYSRLKELTLEDLKITGTMPPLPLEATGLALSSLRLRNVSWATGRSWLAELQQWLKPGLKVLSIAQAHSPAFSCEQVRAFPALTSLDLSDNPGLGERGLMAALCPHKFPAIQNLALRNTGMETPTGVCAALAAAGVQPHSLDLSHNSLRATVNPSAPRCMWSSALNSLNLSFAGLEQVPKGLPAKLRVLDLSCNRLNRAPQPDELPEVDNLTLDGNPFLVPGTALPHEGSMQSVVVPACARSTLSVGVSGTLVLLQGARGFA
notes: Expressed from pM1656 in COS-1 cells; GPI-anchoring sites Asn326 and Gly328 replaced by Gln and Val to give a soluble protein; In the BIACORE experiments it stood as a complex with LPS or FITC-LPS; also called full-length type human soluble CD14; recombinant soluble type CD14
B2: rabbit soluble type CD14 (rabbit serum) (receptor, rabbit (New Zealand white), UniProt Q28680 18-342, looked up)
chain: STDTPEPCELDDDDIRCVCNFSDPQPDWSSALQCMPAVQVEMWGGGHSLEQFLRQADLYTDQRRYADVVKALRVRRLTVGAVQVPAPLLLGVLRVLGYSRLKELALEDIEVTGTAPPPPPLEATGPALSTLSLRNVSWPKGGAWLSELQQWLKPGLQVLNIAQAHTLAFSCEQVRTFSALTTLDLSENPGLGERGLVAALCPHKFPALQDLALRNAGMKTLQGVCAALAEAGVQPHHLDLSHNSLRADTQRCIWPSALNSLNLSFTGLQQVPKGLPAKLNVLDLSCNKLNRAPQPGELPKVVNLSLDGNPFLVPGASKLQEDLTN
B3: rhesus monkey soluble type CD14 (serum) (receptor)
chain: TTPEPCELDDEDFRCVCNFSEPHPDWSEAFQCVSAVEVEIRVGGLSLEPFLTRVDPDADPRQYADTIKALRVRRLTVGAAQVPAQLLVGALRVLAYSRLQELTLEDLEITGTMPPLPLEATGLALSSLRLHNVSWATGRSWLAELQQWLKPGLKVLSIAQAHSPAFSCEQVRAFPALTSLDLSDNPGLGERGLIAALCPHKFPALQNLALRNTGMETPTGVCAALAAAGVQPHSLDLSHNSLRATANPSAPRCMWSSALNSLNLSFAGLEQVPKGLPAKLRVLDLSCNRLNRRPRPDELPQVDNLALDGNPFLVPGTALPQEGSMN
B4: crab-eating macaque soluble type CD14 (serum) (receptor)
chain: B3 chain
B5: human serum-derived soluble type CD14 (receptor)
chain: TTPEPCELDDEDFRCVCNFSEPQPDWSEAFQCVSAVEVEIHAGGLNLEPFLKRVDADADPRQYADTVKALRVRRLTVGAAQVPAQLLVGALRVLAYSRLKELTLEDLKITGTMPPLPLEATGLALSSLRLRNVSWATGRSWLAELQQWLKPGLKVLSIAQAHSPAFSCEQVRAFPALTSLDLSDNPGLGERGLMAALCPHKFPAIQNLALRNTGMETPTGVCAALAAAGVQPHSLDLSHNSLRATVNPSAPRCMWSSALNSLNLSFAGLEQVPKGLPAKLRVLDLSCNRLNRAPQPDELPEVDNLTLDGNPFLVPGTALPHEGSMNSGVVPACARSTLSVGVSGTLVL

How the values were obtained:
[1] = target: T1, sCD14(1-307)S286C; assay: BIACORE 3000, injected over immobilised sCD14(1-356), no LPS
[2] = target: F1024-1-3 antibody; assay: competition ELISA: 4-fold diluted serum mixed with 1 µg/mL peroxidase-labeled F1024-1-3 on immobilised human sCD14(1-356)

Row | Binder | binding result [1] | inhibition ratio of binding of F1024-1-3 antibody to human CD14 [2] [%]
1 | B1 | no binding (tested: 10 µg/mL) | –
2 | B2 | – | 52
3 | B3 | – | 44
4 | B4 | – | 57
5 | B5 | – | 83
